Legend:
[1] = test system: ADRP; conditions: cited from earlier work
[2] = test system: ADRP; assay: Effect of expression of core proteins on the ability to detect ADRP in BHK C13 cells by confocal microscopy; type: cell-based, hamster; conditions: 20 hours after electroporation, anti-adipophilin antibody
Experimental: Cells were harvested 20 hours after electroporation and fixed with methanol. ADRP was detected with anti-adipophilin antibody and core protein with 308 antisera. Secondary antibodies were an anti-mouse IgG conjugated with FITC (for anti-adipophilin) and anti-rabbit IgG conjugated with Cy5 (for 308 antisera). Panels A, D, G, J, M and P are images of ADRP localization. Panels B, E, H, K, N, and Q are images of core distribution. Panels C, F, I, L, O and R show the merged images of core and ADRP distributions. Cells were electroporated with RNA from the following constructs: panels A, B and C, pSFV.1-195; panels D, E and F, pSFV.1-173; panels G, H and I, pSFV.1-169; panels J, K and L, pSFV.1-153; panels M, N and O, pSFV.Δ155-161; panels P, Q and R, pSFV.Δ161-166.
(§1) 0.8 ml of competent cells were mixed with in vitro transcribed RNA in an electroporation cuvette (0.4 cm gap) and pulsed twice at either 1.2 kV, 25 μF (for BHK C13 cells) or 0.36 kV, 960 μF (for MCA RH7777 cells). Between pulses, the cell/RNA suspension was gently mixed. Following electroporation, cells were diluted in growth medium and seeded onto either tissue culture dishes or coverslips in 24-well tissue culture plates and then incubated at 37° C.
(§2) Cells on 13 mm coverslips were fixed in either methanol at −20° C. or 4% paraformaldehyde, 0.1% Triton X-100 (prepared in PBS) at 4° C. for 30 mins. Following washing with PBS and blocking with PBS/CS (PBS containing 1% newborn calf serum), cells were incubated with primary antibody (diluted in PBS/CS at 1/200 for JM122 antibody, 1/1000 for 308 antisera and 1/100 for adipophilin antibody) for 2 hours at room temperature. Cells were washed extensively with PBS/CS and then incubated with conjugated secondary antibody (either anti-mouse or anti-rabbit IgG raised in goat) for 2 hours at room temperature. Cells were washed extensively in solutions of PBS/CS followed by PBS and finally H2O before mounting on slides using Citifluor. Samples were analyzed using a Leiss LSM confocal microscope.

[3] = test system: lipid droplets; assay: Intracellular localization of core proteins and lipid droplets (indirect immunofluorescence, oil red O, confocal microscopy); type: cell-based, hamster; conditions: BHK C13 cells, 20 hours after electroporation, antibody JM122 and oil red O
Experimental: BHK C13 cells were harvested 20 hours after electroporation and fixed with 4% paraformaldehyde, 0.1% Triton X-100. Indirect immunofluorescence was performed with antibody JM122 and an anti-mouse secondary antibody conjugated with FITC. Lipid droplets were stained with oil red O. Panels A, D, G, J, M, P, S and V show the distributions of core protein. Panels B, E, H, K, N, Q, T and W show the locations of lipid droplets. Panels C, F, I, L, O, R, U and X are merged images of core protein and lipid droplets. Cells were electroporated with RNA from the following constructs: panels A, B and C, pSFV.1-195; panels D, E and F, pSFV.1-173; panels G, H and I, pSFV.1-169; panels J, K and L, pSFV.1-153; panels M, N and O, pSFV.Δ155-161; panels P, Q and R, pSFV.Δ161-166; panels S, T and U, pSFVA125-144; panels V, W and X, pSFV.1-124, 145-152.
as §1, §2
Following incubation with both antibodies and washing, lipid droplets were stained in paraformaldehyde-fixed cells by briefly rinsing coverslips in 60% propan-2-ol followed by incubation with 0.5 ml 60% propan-2-ol containing oil red O for 1.5-2 mins at room temperature. Coverslips were briefly rinsed with 60% propan-2-ol, washed with PBS and H2O and mounted as described above. The oil red O staining solution was prepared from a saturated stock of approximately 1% oil red O dissolved in propan-2-ol. Before staining, the stock was diluted with H2O and then filtered.
This conclusion was arrived at by combining the techniques of immune electron microscopy with the ability to stain lipid with osmium tetroxide. However, this method suffers from the disadvantages that it is time-consuming and osmium tetroxide can stain other biological molecules (e.g. proteins) in addition to lipid. Therefore, we developed a method for detecting proteins firstly by indirect immunofluorescence followed by staining of lipid droplets with the oil-soluble colorant oil red O. Combined with the method of confocal microscopy, it is possible to visualize the intracellular localizations of core protein and lipid droplets separately and together. Here, BHK C13 cells have been electroporated with pSFV.1-195 RNA and, following incubation at 37° C. for 20 hours, the cells have been examined by both indirect immunofluorescence and staining with oil red O. In panel A, the core protein produced by pSFV.1-195 is seen to locate to vesicular structures in the cytoplasm.

[4] = test system: ADRP; assay: Effect of expression of core protein on the abundance of ADRP (Western blot); type: cell-based, hamster; conditions: BHK C13 cells, extracts at various times following electroporation
Experimental: BHK C13 cells were electroporated with RNA from pSFV.1-195 and pSFV.1-153 and extracts were prepared at the times indicated following electroporation. Aliquots of cell extracts were electrophoresed on 10% polyacrylamide gels and then the proteins were transferred to nitrocellulose membrane for Western blot analysis. The upper panels show membranes probed with JM122 antibody while, in the lower panels, membranes were probed with anti-adipophilin antibody. Bands corresponding to core proteins, expressed from pSFV.1-195 and pSFV.1-153, and ADRP are arrowed.
To prepare extracts, electroporated cells were harvested by removing the growth medium and washing the cell monolayers with PBS. Cells were scraped into PBS and pelleted by centrifugation at 100 g for 5 mins at 4° C. The cell pellet was solubilized in sample buffer consisting of 160 mM Tris (pH 6.7), 2% SDS, 700 mM β-mercaptoethanol, 10% glycerol, 0.004% bromophenol blue.
For Western blot analysis, proteins were separated on polyacrylamide gels and transferred to nitrocellulose membrane using standard techniques. The nitrocellulose membrane was blocked in 3% gelatin, 20 mM Tris (pH 7.5), 500 mM NaCl for at least 6 hours at 37° C. prior to incubation with the primary antibody. […] Bound antibody was detected by enhanced chemiluminescence.

Row | Molecule | ADRP expression [1] | ADRP detected by immunofluorescence in core-expressing cells [2] | intracellular localization of core protein relative to lipid droplets [3] | abundance of ADRP by Western blot [4]
1 | CC(C)Cc1ccc(C(C)C(=O)O)cc1 (stereo not drawn) [ibuprofen] | stimulate ADRP expression |  |  | 
2 | COc1ccc2c(c1)c(CC(=O)O)c(C)n2C(=O)c1ccc(Cl)cc1 [indomethacin] | stimulate ADRP expression |  |  | 
3 | pSFV.1-169: SFV construct encoding amino acid residues 1-169 of HCV strain Glasgow core (protein) GACECPGRSRRPCTMSTNPKPQRKTKRNTNRRPQDVKFPGGGQIVGGVYLLPRRGPRLGVRATRKTSERSQPRGRRQPIPKARRPKGRNWAQPGYPWPLYGNEGCGWAGWLLSPSGSRPSWGPNDPRRRSRNLGKVIDTLTCGFVDLMGYIPLVGAPLRGAARALAHGV |  | barely detectable | continue to locate to lipid droplets | 
4 | pSFV.Δ125-144: construct expressing a core variant in which residues 125 to 144 had been deleted (protein) GACECPGRSRRPCTMSTNPKPQRKTKRNTNRRPQDVKFPGGGQIVGGVYLLPRRGPRLGVRATRKTSERSQPRGRRQPIPKARRPKGRNWAQPGYPWPLYGNEGCGWAGWLLSPSGSRPSWGPNVDLMGYIPLVGAPLRGAARALAHGVRVLEDGVNYATGNLPGCSFSIFLLAL |  |  | diffuse fluorescence | 
5 | pSFV.Δ155-161: construct lacking the sequences encoding residues 155 to 161 of the core protein of HCV strain Glasgow (protein) GACECPGRSRRPCTMSTNPKPQRKTKRNTNRRPQDVKFPGGGQIVGGVYLLPRRGPRLGVRATRKTSERSQPRGRRQPIPKARRPKGRNWAQPGYPWPLYGNEGCGWAGWLLSPSGSRPSWGPNDPRRRSRNLGKVIDTLTCGFVDLMGYIPLVARALAHGVRVLEDGVNYATGNLPGCSFSIFLLAL |  | barely detectable | did not affect lipid droplet association | 
6 | pSFV.1-153: SFV construct encoding amino acid residues 1-153 of HCV strain Glasgow core (protein) GACECPGRSRRPCTMSTNPKPQRKTKRNTNRRPQDVKFPGGGQIVGGVYLLPRRGPRLGVRATRKTSERSQPRGRRQPIPKARRPKGRNWAQPGYPWPLYGNEGCGWAGWLLSPSGSRPSWGPNDPRRRSRNLGKVIDTLTCGFVDLMGYIPL |  | readily found | do not associate with lipid droplets | no change in the abundance of ADRP
7 | pSFV.1-124,145-152: core variant truncated at residue 152 and lacking amino acids 125 to 144 (protein) GACECPGRSRRPCTMSTNPKPQRKTKRNTNRRPQDVKFPGGGQIVGGVYLLPRRGPRLGVRATRKTSERSQPRGRRQPIPKARRPKGRNWAQPGYPWPLYGNEGCGWAGWLLSPSGSRPSWGPNVDLMGYIP |  |  | diffuse fluorescence | 
8 | pSFV.1-173: SFV construct encoding amino acid residues 1-173 of HCV strain Glasgow core (protein) GACECPGRSRRPCTMSTNPKPQRKTKRNTNRRPQDVKFPGGGQIVGGVYLLPRRGPRLGVRATRKTSERSQPRGRRQPIPKARRPKGRNWAQPGYPWPLYGNEGCGWAGWLLSPSGSRPSWGPNDPRRRSRNLGKVIDTLTCGFVDLMGYIPLVGAPLRGAARALAHGVRVLE |  | barely detectable | continue to locate to lipid droplets | 
9 | pSFV.1-195: SFV construct encoding the N-terminal 195 amino acids of HCV strain Glasgow (core protein) (protein) GACECPGRSRRPCTMSTNPKPQRKTKRNTNRRPQDVKFPGGGQIVGGVYLLPRRGPRLGVRATRKTSERSQPRGRRQPIPKARRPKGRNWAQPGYPWPLYGNEGCGWAGWLLSPSGSRPSWGPNDPRRRSRNLGKVIDTLTCGFVDLMGYIPLVGAPLRGAARALAHGVRVLEDGVNYATGNLPGCSFSIFLLAL |  | either lacked or contained barely detectable amounts of ADRP | sited around the lipid droplets | rapid reduction in ADRP levels to barely detectable quantities
10 | pSFV.Δ161-166: construct lacking the sequences encoding residues 161 to 166 of the core protein of HCV strain Glasgow (protein) GACECPGRSRRPCTMSTNPKPQRKTKRNTNRRPQDVKFPGGGQIVGGVYLLPRRGPRLGVRATRKTSERSQPRGRRQPIPKARRPKGRNWAQPGYPWPLYGNEGCGWAGWLLSPSGSRPSWGPNDPRRRSRNLGKVIDTLTCGFVDLMGYIPLVGAPLRGHGVRVLEDGVNYATGNLPGCSFSIFLLAL |  | readily found | diffuse cytoplasmic pattern | 

Source: patent publication US20020115066A1, “Viral therapeutics” (priority 1998, published 2002)
